Patent US20160032259A1 (KOREA ADVANCED INSTITUTE OF SCIENCE AND TECHNOLOGY KAIST, published 2016)
Substitutions are numbered along the chain they refer to.

B1: PlGF (ligand)
chain: LPAVPPQQWALSAGNGSSEVEVVPFQEVWGRSYCRALERLVDVVSEYPSEVEHMFSPSCVSLLRCTGCCGDENLHCVPVETANVTMQLLKIRSGDRPSYVELTFSQHVRCECRHSPGRQSPDMPGDFRADA
B2: hVEGF-A165 (ligand, human, UniProt P15692-4 27-191, looked up)
chain: APMAEGGGQNHHEVVKFMDVYQRSYCHPIETLVDIFQEYPDEIEYIFKPSCVPLMRCGGCCNDEGLECVPTEESNITMQIMRIKPHQGQHIGEMSFLQHNKCECRPKKDRARQENPCGPCSERRKHLFVQDPQTCKCSCKNTDSRCKARQLELNERTCRCDKPRR
notes: The cell assays name only 'VEGF-A' without the isoform
B3: VEGF-Trap (Fc fusion, UniProt P17948 129-230, looked up, not shown: a dimerising Fc or GST)
chain: SDTGRPFVEMYSEIPEIIHMTEGRELVIPCRVTSPNITVTLKKFPLDTLIPDGKRIIWDSRKGFIISNATYKEIGLLTCEATVNGHLYKTNYLTHRQTNTIIDVVLSPSHGIELSVGEKLVLNCTARTELNVGIDFNWEYPSSKHQHKKLVNRDLKTQSGSEMKKFLSTLTIDGVTRSDQGLYTCAASSGLMTKKNSTFVRVHEK
modifications: N-glycans at Asn61, Asn93 and Asn328
B4: VEGF-Grab1 (Fc fusion)
chain: EFGRPFVEMYSEIPEIIHMYEGRELVIPCRVTSPNITVTLKKFPLDTLIPDGKRIIWDSRKGFIISNATYKEIGLLTCEATVNGHLYKTNYLTHRQTNTIIDVQISTPSPVTLLRGHTLVLNCTRTTPLNTRVQMTWSYPDEKNKRASVRRRIDQSNSHANIFYSVLTIDKMQNKDKGLYTCRVRSGPSFKSVNTSVHIYDKALEDKTHTCPPCPAPELLGGPSVFLFPPKPKDTLMISRTPEVTCVVVDVSHEDPEVKFNWYVDGVEVHNAKTKPREEQYNSTYRVVSVLTVLHQDWLNGKEYKCKVSNKALPAPIEKTISKAKGQPREPQVYTLPPSREEMTKNQVSLTCLVKGFYPSDIAVEWESNGQPENNYKYYPPVLDSDGSFFLYSKKTVDKSRWQQGNVFSCSVMHEALHNHYTQKSLSLSPGK
modifications: O-linked glycan (HexNAc1Hex1NeuAc1) at Ser135; N-glycans at Asn61, Asn93 and Asn308; no evidence of O-glycosylation at Thr138
notes: Produced in CHO cells, protein A purified; also called G1; VEGF-Grabs
B5: VEGF-Grab3 (Fc fusion)
chain: B4 chain with R146N
modifications: O-linked glycan (HexNAc1Hex1NeuAc1) at Ser135; N-glycans at Asn61, Asn93 and Asn308; mutated Asn172 not glycosylated; no evidence of O-glycosylation at Thr138
notes: Produced in CHO cells, protein A purified; also called G3; VEGF-Grabs

Legend:
[1] = target: B3; experiment: solid phase binding ELISA; PlGF coated, Fc fusion titrated, anti-human Fc-HRP
Experimental: (§1) The binding affinities of VEGF-Grabs to ligands were measured by ELISA as described previously. Briefly, the MaxiSorp plates (Nunc) were coated with either hVEGF-A₁₆₅(150 ng/ml), PlGF (62.5 ng/ml), or hVEGF-B (125 ng/ml) and serially increasing amounts (0.1 nM-10 μM) of VEGF-Grabs or VEGF-Trap were added. After washing, the plates were incubated with HRP-conjugated goat anti-human Fc antibody. Then, 3,3′,5,5′-tetramethylbenzidine (TMB) solution (Sigma-Aldrich) was added and absorbance was measured by ELISA reader (BioRad) at 450 nm.

[2] = target: B3; experiment: solid phase binding ELISA; hVEGF-A165 coated, Fc fusion titrated, anti-human Fc-HRP
Experimental: as §1

[3] = target: B2; experiment: cell-based or functional assay
[4] = target: B1; experiment: solid phase binding ELISA; PlGF coated, Fc fusion titrated, anti-human Fc-HRP
Experimental: as §1

[5] = target: B2; experiment: solid phase binding ELISA; hVEGF-A165 coated; reference VT
Experimental: as §1

[6] = target: B2; experiment: solid phase binding ELISA; hVEGF-A165 coated, Fc fusion titrated, anti-human Fc-HRP
Experimental: as §1

[7] = target: B1; experiment: solid phase binding ELISA; PlGF coated; reference VT
Experimental: as §1

Row | Binder | Kd [1] | Kd [2] | IC50 of VEGF-A-induced proliferation of HUVECs [3] | Kd [4] | fold more efficient than VT in inhibiting VEGF-A-induced proliferation of HUVECs [3] | fold higher affinity than VT [5] | Kd [6] | fold more potent binding affinity than VT [7]
1 | B1 | 46 nM |  |  |  |  |  |  | 
2 | B2 |  | 0.84 nM |  |  |  |  |  | 
3 | B3 |  |  | 4.8 nM |  |  |  |  | 
4 | B4 |  |  | 1.7 nM | 2.8 nM | 2.8 fold | 1.1 fold | 0.79 nM | 18.5 fold
5 | B5 |  |  | 2.4 nM | 6.9 nM | 2 fold | 1.5 fold | 0.56 nM | 6.7 fold
